# From patent publication WO2012019024A2 (dated 2012)
# Positions count from the first letter of the chain named.
# T1: chL1-S1 chimeric human/murine HER-3 ECD Fc fusion (human; murine, UniProt P21860 20-632)
# T1 construct: also called chLl-Sl; chimeric ECD comprising human L1-S1 domains and murine L2-S2 domains; not shown: murine IgG2A hinge, CH2, and CH3 region (pmuFc2ANL vector)
# T1 chain: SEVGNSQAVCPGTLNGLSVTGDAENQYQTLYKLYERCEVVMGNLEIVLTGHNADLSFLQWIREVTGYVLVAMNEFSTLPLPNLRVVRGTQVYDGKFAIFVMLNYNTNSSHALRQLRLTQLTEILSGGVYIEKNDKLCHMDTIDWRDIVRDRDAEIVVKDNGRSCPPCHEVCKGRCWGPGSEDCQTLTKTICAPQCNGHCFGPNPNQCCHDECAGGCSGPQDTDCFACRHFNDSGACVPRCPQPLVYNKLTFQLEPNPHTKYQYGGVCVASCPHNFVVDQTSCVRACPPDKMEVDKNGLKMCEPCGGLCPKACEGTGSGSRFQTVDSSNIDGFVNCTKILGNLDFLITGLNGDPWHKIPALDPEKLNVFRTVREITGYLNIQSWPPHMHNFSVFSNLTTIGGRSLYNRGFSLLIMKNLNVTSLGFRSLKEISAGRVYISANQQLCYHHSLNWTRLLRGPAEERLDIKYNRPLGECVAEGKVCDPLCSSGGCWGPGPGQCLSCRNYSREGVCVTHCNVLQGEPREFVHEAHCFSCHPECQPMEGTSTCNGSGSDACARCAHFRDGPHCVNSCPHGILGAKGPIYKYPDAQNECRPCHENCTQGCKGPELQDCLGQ
# T2: chL2-S2 chimeric human/murine HER-3 ECD Fc fusion (murine; human, UniProt Q61526 20-632)
# T2 construct: also called chL2-S2-Fc; chimeric ECD comprising murine L1-S1 domains and human L2-S2 domains; not shown: murine IgG2A hinge, CH2, and CH3 region (pmuFc2ANL vector)
# T2 chain: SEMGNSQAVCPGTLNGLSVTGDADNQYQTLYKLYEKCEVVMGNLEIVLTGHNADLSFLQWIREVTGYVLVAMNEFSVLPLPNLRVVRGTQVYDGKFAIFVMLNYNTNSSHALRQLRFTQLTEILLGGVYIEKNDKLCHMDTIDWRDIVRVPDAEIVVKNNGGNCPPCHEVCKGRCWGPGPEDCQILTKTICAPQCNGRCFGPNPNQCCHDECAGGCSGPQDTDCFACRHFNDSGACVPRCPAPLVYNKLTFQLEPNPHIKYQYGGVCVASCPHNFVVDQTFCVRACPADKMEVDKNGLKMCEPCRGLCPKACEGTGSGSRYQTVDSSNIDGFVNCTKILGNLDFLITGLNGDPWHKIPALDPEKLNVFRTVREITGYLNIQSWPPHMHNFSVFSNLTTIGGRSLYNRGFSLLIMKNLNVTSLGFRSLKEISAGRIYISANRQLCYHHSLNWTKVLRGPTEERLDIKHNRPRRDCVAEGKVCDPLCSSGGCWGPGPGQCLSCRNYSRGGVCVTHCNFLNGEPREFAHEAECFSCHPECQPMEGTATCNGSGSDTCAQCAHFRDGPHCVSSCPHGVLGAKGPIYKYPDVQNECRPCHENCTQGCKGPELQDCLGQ
# B1: huHER3-8-SMCC-DM1 conjugate (antibody, V domains shown)
# VH: QVQLQESGPGLVKPSQSLSLTCTVTGSSITSDYAWNWIRQHPGNKLEWMGFISYSGSTSYNPSLKSRISITRDTSKNQFFLHLSSVTAADTATYYCSRRLGRLYYFDYWGQGTLLTVSS
# VL: EIVMTQSPATLSVTPGDRVSLSCRASQSINDYLHWYQQKPGQSPRLLIKFASHSISGIPDRFSGSGSGSDFTLTISSVEPEDVGVYYCQNGHSFPWTFGGGTKLEIKR
# modifications: SMCC-DM1 maytansinoid linked to the antibody, 3.5-4 DM1 molecules per antibody; attachment residues and chain not stated
# notes: Immunoconjugate of huHER3-8 (v.1.00) with human constant regions; also called huHER3-8-SMCC-DMl
# B2: huHER3-8-SPDB-DM4 conjugate (antibody, V domains shown)
# VH: B1 VH
# VL: B1 VL
# modifications: SPDB-DM4 maytansinoid linked to the antibody, 3.5-4 DM4 molecules per antibody; attachment residues and chain not stated
# notes: Immunoconjugate of huHER3-8 (v.1.00) with human constant regions
# B3: huHER3-8-PEG4-mal-DM1 conjugate (antibody, V domains shown)
# VH: B1 VH
# VL: B1 VL
# modifications: PEG4-mal-DM1 maytansinoid linked to the antibody, 3.5-4 maytansinoid molecules per antibody; attachment residues and chain not stated
# notes: Immunoconjugate of huHER3-8 (v.1.00) with human constant regions; also called huHER3-8-PEG-mal-DM1; huHER3-8-PEG4-Mal-DMl
# B4: muHER3-3 antibody (antibody, mouse IgG1, kappa, V domains shown)
# VH: QVQLQQPGAELVMPGASVKMSCKASGYTFTDYWIHWVKQRPGQGLEWIGAIDTDTYTSYNQQFKGKATLTVDESSSTAYMQLSSLTSEDSAVYYCARSLLRLLYFDYWGQGTTLTVSS
# VL: DIVMTQSPATLSVTPGDRVSLSCRASQSITDYLHWYQQKSHESPRLLIKFASQSISGIPSRFSGSGSGSDFTLSINSVEPEDVGVYYCQNGHSFPLTFGAGTKLELKR
# notes: also called HER3-3 (murine)
# B5: muHER3-8 antibody (antibody, mouse IgG1, V domains shown)
# VH: B1 VH with Q1D, K13T, H41F, A88S, A89E, R99K, L114T
# VL: B4 VL with T30N, Q53H, S74T, L96W, A100G, L106I
# notes: also called HER3-8 (murine)
# B6: huHER3-8v.1.00 antibody (antibody, V domains shown)
# VH: B1 VH
# VL: B1 VL
# notes: Recombinant humanized antibody with human constant regions; also called huHER3-8 naked antibody
# B7: huHER3-8v.1.01 antibody (antibody, V domains shown)
# VH: B1 VH with R99K
# VL: B1 VL
# notes: Recombinant humanized antibody with human constant regions; murine lysine 95 of heavy chain CDR3 retained
# B8: muHER3-10 antibody (antibody, mouse IgG1, V domains shown)
# VH: EVQLQQSGPELVKPGVSMKISCKASGYSFTDYTMNWVKQSHGKNLEWIGLINPYNDITAYNQKFKGKATLSVNKSSSTAYMELLSLTSEDSAVYYCARRGPRGAWFAYWGQGTLVTVSA
# VL: NIVLTQSPASLAVSLGQRATISCRASTSVYNYGNSFMHWYQQMPGQPPKLLIYLASNLESGVPARFSGSGSRTDFTLTIDPVEADDAATYYCQQNSEDPWTFGGGTKLEIKR
# notes: also called HER3-10 (murine)
# B9: huHER3-10 antibody (antibody, V domains shown)
# VH: B8 VH with E1Q, Q5V, L11V, S28T, H41P, K43Q, K65Q, N73D
# VL: B8 VL with N1D, L15P, D85N, G104Q
# notes: Recombinant humanized antibody with human constant regions; also called huHer-10; humanized (resurfaced) HER3-10
# B10: huHER3-3-SMCC-DM1 conjugate (antibody, V domains shown)
# VH: B4 VH with Q5V, L11V, M13K, Q62K, K64Q
# VL: B1 VL with S20T, N30T, H53Q, T74S, W96L, G100Q, I106L
# modifications: SMCC-DM1 maytansinoid linked to the antibody, 3.5-4 DM1 molecules per antibody; attachment residues and chain not stated
# B11: huHER3-3 antibody (antibody, V domains shown)
# VH: B4 VH with Q5V, L11V, M13K, Q62K, K64Q
# VL: B1 VL with S20T, N30T, H53Q, T74S, W96L, G100Q, I106L
# notes: Recombinant humanized antibody with human constant regions (pAbGlNeo / pAbKZeo plasmids), expressed in HEK 293T; also called humanized (resurfaced) HER3-3
# Key:
# [1] = target: T3, human HER3 (human, UniProt P21860 20-1342); experiment: cell-based or functional assay
# [2] = target: T3, human HER3; experiment: flow cytometry competition on SKBR3 cells, antibody varied against 10 nM biotinylated HRG1β1 ligand
# [3] = target: T3, human HER3; experiment: Kd named as the concentration of the biotinylated reference antibody in the flow cytometry competition assay
# [4] = target: macaque HER3 extracellular domain on 300-19 cells (pSRa-chiHER3) (macaque; human); experiment: flow cytometry on maHER3-overexpressing 300-19 cells, apparent Kd
# Sequence of macaque HER3 extracellular domain on 300-19 cells (pSRa-chiHER3) (macaque; human) (P21860 644-1342, form in doubt): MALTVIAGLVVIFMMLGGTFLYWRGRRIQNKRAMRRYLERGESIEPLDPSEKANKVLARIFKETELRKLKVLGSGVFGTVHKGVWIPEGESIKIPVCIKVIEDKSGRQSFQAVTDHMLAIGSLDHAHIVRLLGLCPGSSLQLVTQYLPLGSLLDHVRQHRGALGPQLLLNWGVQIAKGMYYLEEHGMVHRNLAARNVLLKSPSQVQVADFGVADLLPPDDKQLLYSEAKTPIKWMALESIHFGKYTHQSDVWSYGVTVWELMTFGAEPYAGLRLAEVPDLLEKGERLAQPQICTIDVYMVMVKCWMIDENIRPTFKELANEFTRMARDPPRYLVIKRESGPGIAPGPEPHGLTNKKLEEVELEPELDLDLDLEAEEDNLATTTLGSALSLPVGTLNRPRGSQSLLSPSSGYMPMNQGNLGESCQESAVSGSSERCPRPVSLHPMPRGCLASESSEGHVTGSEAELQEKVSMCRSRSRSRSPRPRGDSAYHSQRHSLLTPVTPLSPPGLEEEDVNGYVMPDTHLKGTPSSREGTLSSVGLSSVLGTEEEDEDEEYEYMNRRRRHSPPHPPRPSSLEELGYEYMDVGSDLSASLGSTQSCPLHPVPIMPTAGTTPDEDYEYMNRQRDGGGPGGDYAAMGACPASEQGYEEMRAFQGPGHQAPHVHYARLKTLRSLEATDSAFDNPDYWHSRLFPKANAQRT
# [5] = target: macaque HER3 extracellular domain on 300-19 cells (pSRa-chiHER3) (macaque; human); experiment: cell-based or functional assay
# [6] = target: T3, human HER3; experiment: flow cytometry on SKBR3 cells, apparent Kd
# Target sequence in this assay (P21860 20-1342 limits assumed): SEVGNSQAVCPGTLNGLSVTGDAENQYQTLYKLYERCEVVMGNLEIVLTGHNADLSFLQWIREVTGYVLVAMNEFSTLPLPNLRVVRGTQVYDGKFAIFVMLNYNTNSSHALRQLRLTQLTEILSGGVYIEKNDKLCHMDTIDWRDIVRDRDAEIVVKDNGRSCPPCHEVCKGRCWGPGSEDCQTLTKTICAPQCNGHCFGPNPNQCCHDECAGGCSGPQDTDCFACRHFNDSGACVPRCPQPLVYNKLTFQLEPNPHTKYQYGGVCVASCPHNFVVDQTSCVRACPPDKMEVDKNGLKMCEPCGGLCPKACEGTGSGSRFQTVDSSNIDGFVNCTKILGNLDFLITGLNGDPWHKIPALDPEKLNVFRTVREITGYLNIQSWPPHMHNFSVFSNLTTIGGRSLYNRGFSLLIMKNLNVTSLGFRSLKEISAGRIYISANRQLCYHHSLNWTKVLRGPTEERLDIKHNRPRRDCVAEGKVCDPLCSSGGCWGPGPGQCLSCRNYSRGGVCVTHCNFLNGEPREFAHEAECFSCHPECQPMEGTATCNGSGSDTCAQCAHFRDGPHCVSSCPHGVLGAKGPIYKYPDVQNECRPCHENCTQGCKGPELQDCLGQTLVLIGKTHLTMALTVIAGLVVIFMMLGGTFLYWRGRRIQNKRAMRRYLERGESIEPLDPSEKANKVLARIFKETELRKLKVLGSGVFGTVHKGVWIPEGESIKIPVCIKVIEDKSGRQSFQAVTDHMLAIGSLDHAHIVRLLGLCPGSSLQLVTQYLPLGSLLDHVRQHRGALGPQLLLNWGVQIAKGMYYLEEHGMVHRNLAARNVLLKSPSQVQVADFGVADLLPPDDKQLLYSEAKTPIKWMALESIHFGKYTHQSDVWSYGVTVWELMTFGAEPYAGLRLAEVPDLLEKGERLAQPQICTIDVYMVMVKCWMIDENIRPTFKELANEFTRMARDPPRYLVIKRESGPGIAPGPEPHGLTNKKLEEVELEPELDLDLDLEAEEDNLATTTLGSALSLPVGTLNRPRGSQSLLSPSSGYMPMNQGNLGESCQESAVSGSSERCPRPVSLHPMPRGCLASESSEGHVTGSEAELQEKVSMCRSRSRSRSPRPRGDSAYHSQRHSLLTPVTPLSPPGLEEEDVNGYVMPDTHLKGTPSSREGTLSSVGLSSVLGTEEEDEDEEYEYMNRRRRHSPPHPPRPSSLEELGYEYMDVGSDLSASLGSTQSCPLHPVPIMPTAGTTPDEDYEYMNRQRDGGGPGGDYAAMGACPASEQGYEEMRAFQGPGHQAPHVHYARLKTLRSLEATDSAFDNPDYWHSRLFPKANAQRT
# [7] = target: T3, human HER3; experiment: flow cytometry on huHER3-overexpressing 300-19 cells, apparent Kd (EC50 of the binding curve)
# [8] = target: T3, human HER3; experiment: flow cytometry on SKBR3 cells (endogenous HER3), apparent Kd
# [9] = target: macaque HER3 extracellular domain on 300-19 cells (pSRa-chiHER3) (macaque; human); experiment: flow cytometry on 300-19 cells expressing maHER3 extracellular domain, apparent Kd
# [10] = target: T3, human HER3; experiment: flow cytometry competition on SKBR3 cells, naked antibody varied, competitor biotinylated muHER3-8
# [11] = target: T3, human HER3; experiment: flow cytometry on huHER3-expressing 300-19 cells, apparent Kd, comparison of murine and humanized antibody
# [12] = target: T3, human HER3; experiment: flow cytometry on huHER3-expressing 300-19 cells
# [13] = target: T1, chL1-S1 chimeric human/murine HER-3 ECD …; experiment: ELISA on chL1-S1 Fc (Figure 30)
# [14] = target: T3, human HER3; experiment: flow cytometry competition on SKBR3 cells, competitor biotinylated muHER3-8
# [15] = target: T2, chL2-S2 chimeric human/murine HER-3 ECD …; experiment: ELISA on chL2-S2 Fc
# [16] = target: T3, human HER3; experiment: flow cytometry on huHER3-expressing 300-19 cells (Figure 15)
# [17] = target: T4, human HER-3 ECD Fc protein (human; murine, UniProt P21860 20-632); experiment: ELISA on human HER-3 ECD Fc (Figure 28)
# T4 construct: also called Fc fusion of human HER-3; not shown: murine IgG2A hinge, CH2, and CH3 region (pmuFc2ANL vector)
# [18] = target: T5, murine HER-3 ECD Fc fusion (murine, UniProt Q61526 20-632); experiment: ELISA on murine HER-3 ECD Fc (Figure 29)
# T5 construct: 'similarly constructed' to the human fusion; also called murine HER-3-Fc; not shown: murine IgG2A hinge, CH2, and CH3 region (pmuFc2ANL vector)
molecule,measurement,setting,value
chKTI-SMCC-DM1 conjugate (antibody),"in vitro cytotoxicity EC50 (WST-8 surviving fraction), huHER3-overexpressing 300-19 cells",[1],53 nM
chKTI-SPDB-DM4 conjugate (antibody),"in vitro cytotoxicity EC50 (WST-8 surviving fraction), huHER3-overexpressing 300-19 cells",[1],4.4 nM
U3-Pharma/Amgen's U1-59 antibody,EC50,[2],2.2 nM
same,Kd,[3],1 nM
B1,Kd,[4],0.29 nM
same,"in vitro cytotoxicity EC50 (WST-8 surviving fraction), maHER3-overexpressing 300-19 cells",[5],0.059 nM
same,Kd,[6],0.49 nM
same,"in vitro cytotoxicity EC50 (WST-8 surviving fraction), huHER3-overexpressing 300-19 cells",[1],0.17 nM
B2,Kd,[4],0.23 nM
same,"in vitro cytotoxicity EC50 (WST-8 surviving fraction), maHER3-overexpressing 300-19 cells",[5],0.099 nM
same,Kd,[6],0.29 nM
same,"in vitro cytotoxicity EC50 (WST-8 surviving fraction), huHER3-overexpressing 300-19 cells",[1],0.18 nM
B3,Kd,[4],0.28 nM
same,"in vitro cytotoxicity EC50 (WST-8 surviving fraction), maHER3-overexpressing 300-19 cells",[5],0.045 nM
same,Kd,[6],0.27 nM
B4,Kd,[7],0.3 nM
same,Kd,[8],0.21 nM
same,Kd,[9],0.14 nM
same,"HRG1β1-induced AKT phosphorylation (pAKT level, % of ligand-only control), whole cell ELISA, MCF7 cells, 10 µg/ml antibody",[1],< 50%
same,"HRG1β1-induced HER3 phosphorylation (pHER3 level, % of ligand-only control), whole cell ELISA, MCF7 cells, 10 µg/ml antibody",[1],< 20%
same,EC50,[2],0.32 nM
B5,Kd,[7],0.23 nM
same,Kd,[8],0.31 nM
same,EC50,[10],0.76 nM
same,Kd,[9],0.24 nM
same,"HRG1β1-induced AKT phosphorylation (pAKT level, % of ligand-only control), whole cell ELISA, MCF7 cells, 10 µg/ml antibody",[1],< 50%
same,"HRG1β1-induced HER3 phosphorylation (pHER3 level, % of ligand-only control), whole cell ELISA, MCF7 cells, 10 µg/ml antibody",[1],< 20%
same,"HRG1β1-induced MCF7 cell proliferation (WST-8, % of ligand-only control), 10 µg/ml antibody",[1],40%
same,EC50,[2],0.29 nM
same,Kd,[3],0.2 nM
B6,Kd,[4],0.19 nM
same,Kd,[11],0.12 nM
same,fold increase of binding affinity against muHER3-8,[12],~2 fold
same,Kd,[6],0.14 nM
same,EC50,[10],0.24 nM
same,binding result,[13],binds
B7,binding result,[14],binds
B8,Kd,[7],0.068 nM
same,Kd,[8],0.052 nM
same,Kd,[9],0.042 nM
same,"HRG1β1-induced AKT phosphorylation (pAKT level, % of ligand-only control), whole cell ELISA, MCF7 cells, 10 µg/ml antibody",[1],< 50%
same,"HRG1β1-induced HER3 phosphorylation (pHER3 level, % of ligand-only control), whole cell ELISA, MCF7 cells, 10 µg/ml antibody",[1],< 20%
B9,binding result,[13],binds
same,binding result,[15],no binding
B10,"in vitro cytotoxicity EC50 (WST-8 surviving fraction), huHER3-overexpressing 300-19 cells",[1],0.19 nM
B11,binding result,[16],binds
same,binding result,[13],binds
same,binding result,[17],binds
same,binding result,[18],binds
